# Test results taken from US8143228B2, “Agents capable of downregulating an MSF-A dependent HIF-1α and use thereof in cancer treatment” (Medical Research Fund of Tel Aviv Sourasky Medical Center, priority 2004, dated 2012).
# B1: MSF-A: myeloid/lymphoid leukemia septin-like fusion protein A (SEQ ID NO:3), over-expressed from the p3xFlag-MSF-A vector (protein, listed as Homo sapiens)
# chain: MKKSYSGGTRTSSGRLRRLGDSSGPALKRSFEVEEVETPNSTPPRRVQTPLLRATVASSTQKFQDLGVKNSEPSARHVDSLSQRSPKASLRRVELSGPKAAEPVSRRTELSIDISSKQVENAGAIGPSRFGLKRAEVLGHKTPEPAPRRTEITIVKPQESAHRRMEPPASKVPEVPTAPATDAAPKRVEIQMPKPAEAPTAPSPAQTLENSEPAPVSQLQSRLEPKPQPPVAEATPRSQEATEAAPSCVGDMADTPRDAGLKQAPASRNEKAPVDFGYVGIDSILEQMRRKAMKQGFEFNIMVVGQSGLGKSTLINTLFKSKISRKSVQPTSEERIPKTIEIKSITHDIEEKGVRMKLTVIDTPGFGDHINNENCWQPIMKFINDQYEKYLQEEVNINRKKRIPDTRVHCCLYFIPATGHSLRPLDIEFMKRLSKVVNIVPVIAKADTLTLEERVHFKQRITADLLSNGIDVYPQKEFDEDSEDRLVNEKFREMIPFAVVGSDHEYQVNGKRILGRKTKWGTIEVENTTHCEFAYLRDLLIRTHMQNIKDITSSIHFEAYRVKRLNEGSSAMANGVEEKEPEAPEM
# modifications: 3xFlag tag
# Tests used:
# Assay type in all cases: cell-based
# [1] = system: HIF-1α transcriptional activity; assay: HRE-dependent luciferase reporter gene assay in HEK 293 cells; settings: transient transfection, hypoxia, compared with empty vector
# Description: FIG. 7 is a graph depicting luciferase activity (a reporter of HIF-1α transcriptional activation) as a function of the presence or absence of the N-terminus of the MSF-A protein. HEK 293 cells were co-transfected with 0.1 μg HRE-dependent luciferase reporter [pBI-GL V6L (Post, D. E., and Van Meir, E. G. 2001. Generation of bidirectional hypoxia/HIF-responsive expression vectors to target gene expression to hypoxic cells. Gene Ther 8, 1801-1807. Mabjeesh, N. J., et al., 2002, Geldanamycin induces degradation of hypoxia-inducible factor 1 alpha protein via the proteasome pathway in prostate cancer cells. Cancer Res 62, 2478-2482) and the wild type (WT) MSF-A (p3xFlag-MSF-A), ΔN-MSF-A (ΔN) (p3xFlag-ΔN-MSF-A) or empty vector (EV) (p3xFlag-cmv-25) constructs as follows: Experiment (Exp.) No. 1=1 μg EV; Exp. No. 2=0.5 μg EV and 0.5 μg WT; Exp. No. 3-1 μg WT; Exp. No. 4=0.5 μg EV and 0.5 μg ΔN; Exp. No. 5=1 μg ΔN. After 24 hours of transfection, cells were subjected to normoxia or hypoxia for overnight and then analyzed for luciferase luminescence assay. Luciferase activity is presented as relative units per μg protein in each experiment. Columns represent means; bars represent SD; n=3; *, p<0.05 compared to hypoxia of EV. Note the significant decrease of luciferase activity in cells grown under hypoxia and transfected with the N-terminus truncated form (ΔN) of MSF-A as compared with cells transfected with the wild-type form of MSF-A. Also note that under normoxia, when the luciferase activity is hardly detected, no significant difference is obtained.
# FIG. 8 is a graph depicting luciferase activity (a reporter of HIF-1α transcriptional activation) as a function of the presence or absence of the GTP binding site of MSF-A (ΔG). HEK 293 cells were cotransfected with HRE-dependent luciferase reporter and the expression vector encoding wild-type MSF-A (WT) (p3xFlag-MSF-A), the deleted GTP binding site form of MSF-A (ΔG) (p3xFlag-ΔG-MSF-A) or empty vector (EV) (p3xFlag-cmv-25) and then were exposed to hypoxia conditions as described in the description of FIG. 4, hereinabove. Luciferase activity is presented as relative units per μg protein in each experiment. Columns represent means; bars represent SD; n=3. Note the non-significant effect of the ΔG-MSF-A on HIF-1α activity.
# Reporter gene assay and luminescence measurements—HRE-dependent luciferase activity was performed using the pBI-GL construct (pBI-GL V6L) containing six tandem copies of the VEGF hypoxia response element as previously described (Mabjeesh et al., 2002; Post and Van Meir, 2001). […] Luciferase enzymatic activity was measured using the commercial kit TROPIX (Bedford, Mass.) in the Galaxy luminometer (BMG Labtechnologies LUMIstar) following the manufacturer's instructions. […]
# PC-3 cells [2] = assay: Plating efficiency assay; settings: PC-3-MSF-A cells; PC-3-Neo 16.8%, p<0.001
# Description: Plating Efficiency assay—PC-3-Neo and PC-3-MSF-A cells were cultured in 100 mm-diameter plate (1000 cells/plate) and incubated to allow colony formation. The cultures were monitored on a daily basis and when colonies were visible (approximately after 2 weeks) cells were fixed and stained with 90% EtOH, 5% Acetic acid, 0.01% Coomassie brilliant blue (Sigma-Aldrich, Saint Louis, Mo.). Plating was done in triplicates. Colonies containing ≧20 cells were counted. Plating efficiency (%) was calculated as number of colonies formed/number of cells plated×100.
# HIF-1 target genes = assay: Semi-quantitative RT-PCR of HIF-1 target genes
# Description: FIGS. 12a-f are RT-PCR analyses depicting HIF-1α mediated activation of various genes in cells transfected with the expression vector alone (Neo) or the MSF-A expression vector (MSF-A). Total RNA was isolated from PC-3-Neo and PC-3-MSF-A cells grown under normoxic (lanes 1 and 2) and hypoxic (lanes 3 and 4) conditions. Semi-quantitative RT-PCR analysis was performed using VEGF, Glut-1, ET-1, CA-IX, HIF-1α and β-actin primers (SEQ ID NOs:4200-4211 as described under General Materials and Experimental Methods). Lane 1—Neo, lane 2—MSF-A, lane 3—Neo, lane 4—MSF-A, lane 5—water (negative control).
# Isolation and analysis of RNA—Total RNA was extracted from cells by using RNeasy Mini Kit (Qiagen Inc., Valencia, Calif.) according to the manufacturer's protocol. Total RNA from xenograft-derived tumors, which were frozen in liquid N2 immediately after dissection, was prepared using TRI REAGENT (Sigma-Aldrich Co., Saint Louis, Mo.) following the manufacturer's instructions. One μg total RNA was reverse transcribed into cDNA using Reverse-iT 1st Strand Synthesis Kit (ABgene, Epsom, United Kingdom) using anchored oligo dT as first strand primer. […] Semi-quantitative RT-PCR was performed using […] as an internal control to normalize gene expression for the PCR templates. […]
# PC-3 cells [3] = assay: Cell proliferation assay with XTT reagent; settings: PC-3-MSF-A vs PC-3-Neo cells, normoxia and hypoxia
# Description: FIG. 13 is a graph depicting the effect of MSF-A over-expression on cell proliferation. PC-3-Neo and PC-3-MSF-A cells were grown under normoxic and hypoxic conditions for the indicated time and then analyzed for proliferation using XTT assay. Proliferation was expressed as increase in % of the initial O.D. measured on the next day of seeding which was considered 100%. Growth media were not changed until the end of the experiment.
# Cell proliferation assay with XTT reagent—For cell proliferation assay, PC-3-Neo and PC-3-MSF-A cells were seeded in 96 well-plates (1000 cells/well in 200 μLI) using a 3-bis-(2-methoxy-4-nitro-5 sulfenyl)-(2H)-tetrazolium-5-carboxanilide (XTT) kit (Biological Industries Ltd. Kibbutz Beit Haemek, Israel). Wells filled with media served as a control. On the next day, the cells were cultured either under normoxic or hypoxic conditions. XTT reagent was added at days 0, 2, 4 and 6 following the manufacturer's instructions. The absorbance of the samples was measured using a microplate reader at a wavelength of 450 nm using Elisa reader 680 (Bio-rad, Hercules, Calif.). All experiments were performed in triplicate.
molecule,measurement,setting,value
B1,HIF-1α transcriptional activity (luciferase reporter),[1],induced HIF-1α activity
same,plating efficiency,PC-3 cells [2],49.3%
same,HIF-1α mRNA level,HIF-1 target genes; PC-3-MSF-A and PC-3-Neo cells,unchanged
same,VEGF mRNA levels,HIF-1 target genes; PC-3-MSF-A vs PC-3-Neo cells,significantly higher
same,proliferation rate (XTT),PC-3 cells [3],higher
